Data taken from the supplement of paper PMC9170038.

Test system: K4 kissing-loop RNA reporter
Experiment: apparent KD of K4 kissing-loop reporter; higher = weaker reporter binding
Conditions: Eterna round: R107
Protocol: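 RNA-MaP round R107: designed RNA switches with theophylline, tryptophan, arginine or FMN aptamers are transcribed on-chip within common flanks. They are titrated with a labelled K4 kissing-loop RNA reporter in RNA-MaP buffer (100 mM Tris pH 7.5, 80 mM KCl, 4 mM MgCl2), without ligand or with the indicated ligand. Median apparent KD per design.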

[1] = input ligand: theophylline 20 uM
[2] = input ligand: tryptophan 2.4 mM
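Further: bound reporter read as fluorescence of individual clusters on recovered sequencing chips by microscopy, with normalized cluster intensities fitted with a binding model.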

Row | Sequence | apparent KD of K4 kissing-loop reporter (input ligand: FMN 200 uM) [µM] | apparent KD of K4 kissing-loop reporter (input ligand: arginine 13.2 mM) [µM] | apparent KD of K4 kissing-loop reporter (input ligand: none) [µM] | apparent KD of K4 kissing-loop reporter [1] [µM] | apparent KD of K4 kissing-loop reporter [2] [µM]
1 | AAUUUAUUAUCUGAUACCAGACUUUUUCUUGUUUAUAAGUCAAGUGAUGUUUGACUUUUAGUCCCUUGGCAGCAGUAUUUUUUAA [JR_Nu_SSTheophyB_Sub026] | 0.125 | 0.128 | 0.123 | 0.113 | 0.114
2 | ACACGCAACUAUAGACCAGUGAUGUUGGAACGAGGACCGGUACGGCCGCCACUCGAGCGGACGAUCUACGCCUCUUAUGCUAACG [theeternabot_exclusion_KL_Trp_A_15] | 0.482 | 0.481 | 0.552 | 0.545 | 0.35
3 | ACACUAUCGUCAUAGACGGUAGUGAAAAGUGAGGAUAUGAGUGAUGUUAGAAGGCACUAAGACUGUAUCGAAUAGAUACAGUCAA [FmnA 4 #K4BetweenAptamer #OpenEnded] | 0.803 | 0.262 | 0.384 | 0.292 | 0.349
4 | ACACUAUCGUCAUAGACGGUAGUGAAAGCUCAGGAUAUGAGUGAUGUUAGAAGGGAGUAAAUCUUAGGUAUCGAAUAGAUACCAA [FmnA 7 #K4BetweenAptamer #OpenEnded] | 1.22 | 0.364 | 0.508 | 0.287 | 0.416
5 | ACAUCGGUUGAGAGUGAUGUUCCUUGUGUUCGAGGACCGGUACGGCCGCCACUCGGGUAGAAAAUAACAGAUGUGUUUCCUUUUU [BDazzled - #18 SS Tryptophan A] | 0.164 | 0.0805 | 0.171 | 0.181 | 0.209
6 | ACCAUCAAAGAUGGCCAGGACUCAACUGAUACCAGAGUGAAAACACUCCCUUGGCAGCAGGUGAGUGAUGUUCACGAGUCCUGGA [Omel KL Theo A SS B v7] | 0.117 | 0.082 | 0.215 | 0.169 | 0.147
7 | ACCAUUUUACCGGCAGUAGUGAUGUUACUCCGAGGACCGGUACGGCCGCCACUCGCGAACGUAGGGUCGCGCACUCAAAGAGUGC | 0.1 | 0.0756 | 0.106 | 0.067 | 0.0897
8 | ACCCUGGGUCCCGAAAGGGACCCAGGGAGUGAGGAUAUGUGGAAACACAGAAGGCACAGCACAGUGAUGUUGUGCGACGAAAGUC [#02 K4 FMN A Same State] | 0.566 | 0.0975 | 0.401 | 0.175 | 0.217
9 | ACCGCAUUGGGAUGAUCCCAAUGCGCUGGUCGAGGACCGGUACGGCCGCCACUCGUCCAGUGAUGUUGGACUAGGGCAACUGAAG [Bileesma] | 0.519 | 0.27 | 0.261 | 0.303 | 0.109
10 | ACCUACCAUUAGUGAUGUUAAUGGACGGAAGGAGCGCGGAUAUCCGCAGGUAGGUCGCCGAAGGCUAGACAUUGUCUAGCCAUUA [AK1.2 SS Arginine A] | 0.225 | 0.186 | 0.196 | 0.166 | 0.182
11 | ACCUACGAUCACAAAAGUGAUUGUAGGAUCUAGGAUAUGCUGAAGAGCAGAAGGAGAGUGAUGUUCUCAACUCACGAAAGUGAGA [whbob_Ex_FMNA__2th188] | 0.382 | 0.222 | 0.198 | 0.258 | 0.175
12 | ACGAUCAUGUCGGCCGCCACUGAGAGUAGUGAUGUUACUUUUAUGUUUUAGUUAUAAUAUUUGAACAGGACCGGGACAUGUUCGU [JR_ExcTryptoB_Sub023] | 0.103 | 0.0848 | 0.0853 | 0.0801 | 0.0922
13 | ACGAUUUACAGAAGGAGCGUGUAUUUAACUACAAUUAUCUUAGCGAGUGAUGUUCGUUUUACACAGGUAGGUCGCUGUAUAUCGA [JR_ExcArginiB_Sub011] | 0.218 | 0.303 | 0.263 | 0.374 | 0.22
14 | ACGCUGUGAAUAACACAGCGAAUAAAUUCGCGAGGACCGGUACGGCCGCCACUCGCUAACUGCGAGUGAUGUUCGAUAAUAAAAU [Mat - Mod of OpenEnded 3 - D13] | 0.176 | 0.0808 | 0.172 | 0.201 | 0.0911
15 | ACGGAGUGAUGUUCCGGCCUCCCAGCAGAUACCAGCAGUCGCGAUUGCCCUUGGCAGCUGUCCGCGGCAUCCACUUGUAGCGGUA [theeternabot_exclusion_KL_Theo_A_12] | 0.223 | 0.173 | 0.204 | 0.222 | 0.197
